This assay concerns the target Hedgehog acyltransferase (Hhat), triple tagged (HA-FLAG-His) WT (UniProt Q5VTY9).

Primed or numbered codes have the meaning given here. Where no end group is shown, it is not given here. PEG2′ = not defined here

Chain of UniProt Q5VTY9 (Q5VTY9 whole entry): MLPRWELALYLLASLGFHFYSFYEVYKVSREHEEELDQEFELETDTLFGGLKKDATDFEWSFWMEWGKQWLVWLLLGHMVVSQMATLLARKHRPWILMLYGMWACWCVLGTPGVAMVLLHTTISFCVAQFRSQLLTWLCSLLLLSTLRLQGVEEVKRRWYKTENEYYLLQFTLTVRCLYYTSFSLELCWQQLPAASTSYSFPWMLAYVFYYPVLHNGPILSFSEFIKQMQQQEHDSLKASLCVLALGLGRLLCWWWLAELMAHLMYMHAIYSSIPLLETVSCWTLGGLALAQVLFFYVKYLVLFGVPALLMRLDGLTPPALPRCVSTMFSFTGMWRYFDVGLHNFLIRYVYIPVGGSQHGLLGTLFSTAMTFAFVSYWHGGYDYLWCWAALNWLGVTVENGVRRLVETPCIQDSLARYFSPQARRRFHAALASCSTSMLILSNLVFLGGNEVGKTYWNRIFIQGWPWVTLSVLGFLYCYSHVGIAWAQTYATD

B1: biotinylated WT Shh peptide, …-(PEG2)-K(Biotin)-NH2 (peptide)
peptide: CGPGRGFGKR-{PEG2′-K(Biotin)-NH2}
For B1, the apparent Km for Shh peptide, Hhat-mediated NBD-fatty acylation of Shh peptide (initial rates, 10 min, 37 °C), Shh titrated in the presence of 25 μM NBD-myristoyl-CoA (14:0) was 10.7 μM Shh; the apparent Km for Shh peptide, Hhat-mediated NBD-fatty acylation of Shh peptide (initial rates, 10 min, 37 °C), Shh titrated in the presence of 25 μM NBD-oleoyl-CoA (18:1) was determined as 19.7 μM Shh; the apparent Km for Shh peptide, Hhat-mediated NBD-fatty acylation of Shh peptide (initial rates, 10 min, 37 °C), Shh titrated in the presence of 25 μM NBD-palmitoleoyl-CoA (16:1) came out at 5 μM Shh; the apparent Km for Shh peptide, Hhat-mediated NBD-fatty acylation of Shh peptide (initial rates, 10 min, 37 °C), Shh titrated in the presence of 25 μM NBD-palmitoyl-CoA (16:0) was found to be 10.4 μM Shh.

Source of the values: article PMC9513256.
